{
  "source": "paper PMC5928155",
  "about": "“Sak4 of Phage HK620 Is a RecA Remote Homolog With Single-Strand Annealing Activity Stimulated by Its Cognate SSB Protein” (Frontiers in Microbiology, 2018)",
  "molecules": {"B1": {"name": "SSB_(HK620), wild-type HkaK protein from phage HK620 (natural protein, UniProt Q9AZ30 1-195, looked up)", "chain": "MSNVIFTYNEEAALTAGQGGFINETGAHIITITEAELKQSEKGAKFIEFSGESDDGRKIQYLSVCVQKNDGTENKFGANVVHAMMGCAGIGQLTQHMVSASKFVAPEFHGKKIGLVLQKVLTTNKKTGADSYQMEIRIPFIAQTGQTLKEKAVGKQPETIANMVASLKDKDNRSKNVSQNHADDYGYSQNDYPPF", "notes": "HkaK (first annotated Abc1) of phage HK620, a distant SSB homolog (Pfam DUF669); produced untagged; monomer 21.3 kDa; Untagged; also called Abc1_(HK620); HkaK/Abc1_(HK620); source: E. coli ER2566 with pSMG279, purified (PEI, ammonium sulfate, HiTrap Heparin)"}, "B2": {"name": "GO47 (ssDNA)", "DNA": "ACCTGAATCGCCAGCGGCATCAGCACCTTGTCGCCTTACGTATACTATTTGCCCATGGTGAAAACGGGGGCGAAGAAGTTG"}, "B3": {"name": "GO47/GO34 duplex (dsDNA)", "DNA 1": "B2 DNA", "DNA 2": "CAACTTCTTCGCCCCCGTTTTCACCATGGGCAAATAGTATACGTAAGGCGACAAGGTGCTGATGCCGCTGGCGATTCAGGT"}},
  "key": {"[1]": {"target": "T1, Sak4 (HkaL) of phage HK620 (Enterobacteria phage HK620, UniProt Q9AZ29)", "T1 construct": "untagged full-length Sak4 from plasmid pSMG288, expressed in E. coli ER2566; monomer in solution", "T1 sequence (Q9AZ29 1-226)": "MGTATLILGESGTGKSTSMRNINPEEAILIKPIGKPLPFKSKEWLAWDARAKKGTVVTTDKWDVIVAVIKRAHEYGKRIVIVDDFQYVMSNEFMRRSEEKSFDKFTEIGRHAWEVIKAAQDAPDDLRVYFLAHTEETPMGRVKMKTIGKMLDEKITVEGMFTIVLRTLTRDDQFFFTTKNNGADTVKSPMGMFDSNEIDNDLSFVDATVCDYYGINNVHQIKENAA", "assay": "gel shift of Cy5-labelled 81-mer ssDNA and single-strand annealing assay, with or without ATP", "conditions": "1 mM ATP, 5 mM MgCl2, about 150-169 mM NaCl, pH 7.5, 30 °C; ATP needed for ssDNA binding and annealing; functional evidence, nucleotide binding not measured directly"}, "[2]": {"target": "SSB_(HK620), wild-type HkaK protein from phage HK620 (phage HK620) (UniProt Q9AZ30)"}, "[3]": {"target": "the molecule itself", "assay": "SEC; Superdex 200 10/300 GL; proteins alone or together in 1 mL of 50 mM Tris-HCl pH 8, 1 mM DTT, 5% glycerol, 150 mM NaCl, 20 min at 30°C before injection; fractions analysed by SDS-PAGE; no ssDNA, no ATP"}, "SSB Ecoli": {"target": "SSB Ecoli (Escherichia coli, UniProt P0AGE0 2-178)", "sequence (P0AGE0 2-178)": "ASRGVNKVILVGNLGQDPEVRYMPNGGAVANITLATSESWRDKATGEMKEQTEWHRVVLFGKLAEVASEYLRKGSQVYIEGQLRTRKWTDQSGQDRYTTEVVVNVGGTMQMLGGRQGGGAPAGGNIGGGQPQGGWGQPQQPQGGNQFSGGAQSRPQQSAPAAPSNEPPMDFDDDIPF", "assay": "EMSA; 5 mM Mg2+, 1 mM ATP; EMSA: 13 mM Tris-HCl pH 7.5, 5 mM MgCl2, 169 mM NaCl, 0.1 mg/mL BSA, 1 mM DTT, +/- 1 mM ATP, 10 nM DNA, 15 min at 30 C; 5% native PAGE in 1X TAE", "conditions": "protein: commercial; chain copies: 4; label: 5'-Cy5; single strand"}, "SSB HK620 (HkaK)": {"target": "T2, SSB HK620 (HkaK) (Enterobacteria phage HK620, UniProt Q9AZ30 1-195)", "T2 sequence": "B1 chain", "assay": "EMSA; 5 mM Mg2+, 1 mM ATP; EMSA: 13 mM Tris-HCl pH 7.5, 5 mM MgCl2, 169 mM NaCl, 0.1 mg/mL BSA, 1 mM DTT, +/- 1 mM ATP, 10 nM DNA, 15 min at 30 C; 5% native PAGE in 1X TAE", "conditions": "protein: recombinant; tags: untagged; chain copies: 4; label: 5'-Cy5; single strand"}, "Sak4 (HkaL) [4]": {"target": "T3, Sak4 (HkaL) (Enterobacteria phage HK620, UniProt Q9AZ29 1-226)", "T3 sequence": "T1 sequence (Q9AZ29 1-226)", "assay": "EMSA; 1 mM ATP, 5 mM Mg2+; EMSA: 13 mM Tris-HCl pH 7.5, 5 mM MgCl2, 169 mM NaCl, 0.1 mg/mL BSA, 1 mM DTT, +/- 1 mM ATP, 10 nM DNA, 15 min at 30 C; 5% native PAGE in 1X TAE", "conditions": "protein: recombinant; tags: none stated; label: 5'-Cy5; single strand"}, "[5]": {"target": "T4, Sak4 (HkaL);SSB HK620 (HkaK) (Enterobacteria phage …, UniProt Q9AZ29;Q9AZ30 1-226;1-195, |)", "T4 sequence 1": "T1 sequence (Q9AZ29 1-226)", "T4 sequence 2": "B1 chain", "assay": "EMSA; Sak4 titrated on GO47 precoated with 5.1 uM SSB HK620; 1 mM ATP; value is Sak4 concentration; EMSA: 13 mM Tris-HCl pH 7.5, 5 mM MgCl2, 169 mM NaCl, 0.1 mg/mL BSA, 1 mM DTT, +/- 1 mM ATP, 10 nM DNA, 15 min at 30 C; 5% native PAGE in 1X TAE", "conditions": "protein: recombinant;recombinant; tags: none stated;untagged; copies: 1;4; label: 5'-Cy5; single strand"}, "Sak4 (HkaL) [6]": {"target": "T3, Sak4 (HkaL)", "assay": "EMSA; 3.7 uM Sak4, 1 mM ATP; EMSA: 13 mM Tris-HCl pH 7.5, 5 mM MgCl2, 169 mM NaCl, 0.1 mg/mL BSA, 1 mM DTT, +/- 1 mM ATP, 10 nM DNA, 15 min at 30 C; 5% native PAGE in 1X TAE", "conditions": "protein: recombinant; tags: none stated; label: 5'-Cy5 on GO47; blunt"}},
  "data": [
    {"molecule": "Nc1ncnc2c1ncn2[C@@H]1O[C@H](COP(=O)(O)OP(=O)(O)OP(=O)(O)O)[C@@H](O)[C@H]1O", "note": "[ATP]", "values": [
      {"measurement": "gel shift of Cy5-labelled 81-mer ssDNA and single-strand annealing assay, with o", "setting": "[1]", "value": "Sak4 shifted the ssDNA only if ATP was added in the reaction buffer"}
    ]},
    {"molecule": "Sak4 protein of phage HK620 (natural protein)", "values": [
      {"measurement": "single-strand annealing of GO47 and GO34 (10 nM each) by 0.5 µM Sak4 with SSB (HK620) at concentrations above 640 nM, 1 mM ATP (spontaneous annealing 11.8%)", "setting": "[2]", "value": "> 65", "unit": "%"}
    ]},
    {"molecule": "B1", "values": [
      {"measurement": "stoichiometry N", "setting": "[3]", "value": 4}
    ]},
    {"molecule": "B2", "values": [
      {"measurement": "apparent K (half saturation)", "setting": "SSB Ecoli", "value": "~40", "unit": "nM"},
      {"measurement": "apparent K (half saturation)", "setting": "SSB HK620 (HkaK)", "value": 226, "unit": "nM"},
      {"measurement": "apparent K (half saturation)", "setting": "Sak4 (HkaL) [4]", "value": "~1850", "unit": "nM"},
      {"measurement": "apparent K (half saturation)", "setting": "[5]", "value": "< 500", "unit": "nM"}
    ]},
    {"molecule": "B3", "values": [
      {"measurement": "binding result", "setting": "Sak4 (HkaL) [6]", "value": "no binding"}
    ]}
  ]
}
